The values below come from patent US20240254206A1 (ROCKEFELLER UNIVERSITY, published 2024).

B1: 12A21 (antibody, V domains shown)
VH: SQHLVQSGTQVKKPGASVRVSCQASGYTFTNYILHWWRQAPGQGLEWMGLIKPVFGAVNYARQFQGRIQLTRDIYREIAFLDLSGLRSDDTAVYYCARDESGDDLKWHLHPWGQGTQVIVSP
VL: DIQMTQSPSSLSASVGDRVTINCQAGQGIGSSLNWYQKKPGRAPKLLVHGASNLQRGVPSRFSGSGFHTTFTLTISSLQPDDVATYFCAVFQWFGPGTKVDIKR
notes: also called 12A21HC; 12a21kc
B2: NIH45-46 (antibody, V domains shown)
VH: QVRLSQSGGQMKKPGESMRLSCRASGYEFLNCPINWIRLAPGRRPEWMGWLKPRGGAVNYARKFQGRVTMTRDVYSDTAFLELRSLTSDDTAVYFCTRGKYCTARDYYNWDFEH
VL: EIVLTQSPATLSLSPGETAIISCRTSQSGSLAWYQQRPGQAPRLVIYSGSTRAAGIPDRFSGSRWGADYNLSISNLESGDFGVYYCQQYEFFG
B3: 1NC9 (antibody, V domains shown)
VH: QVRLVQSGAQLKKPGASVTVSCEASGYNFVNYIINWVRQTPGRSFEWVGMIDPRRGRPWSAQKFQGRLTLTRDIDSEKLYMHLSGLRGDDTAVYYCARQDSDFHDGHGHTLRGMFDSWGQGSPVTVSS
VL: QVLSVSGTPGQRVIISCSGTSSNVGGNLVSWYQHLPGAAPRLLIHRDDQRPSGVPDRFSGSKSGNSASLVISGLRSDDEADYFCAAYDSTFSLPVFGGGTRLTVLS
notes: also called LSSNEC9HC; LSSNEC9LC
B4: 8ANC131 (antibody, V domains shown)
VH: QGQLVQSGGGLKKPGTSVTISCLASEYTFNEFVIHWIRQAPGQGPLWLGLIKRSGRLMTAYNFQDRLRLRRDRSTGTVFMELRGLRPDDTAVYYCARDGLGEVAPDYRYGIDVWGQGSTVIVTA
VL: EIVLTQSPATLSLSPGERATLSCRASQGLNFVVWYQQKRGQAPRLLIHAPSGRAPGVPDRFSARGSGTEFSLVISSVEPDDFAIYYCQEYSSTPYNFGPGTRVDRKR
notes: also called 8ANC131HC; 8ANC131KC
B5: 8ANC134 (antibody, V domains shown)
VH: B4 VH with L11V, L46V, A60S, N62K, R68S, P87L, D106A, R108L, V113A, A124S
VL: B4 VL with R39G, A49G, S51T, G52D, I84L
notes: also called 8ANC134HC; 8ANC134KC
B6: 3BNC60 (antibody, V domains shown)
VH: QVHLSQSGAAVTKPGASVRVSCEASGYKISDHFIHWWRQAPGQGLQWVGWINPKTGQPNNPRQFQGRVSLTRQASWDFDTYSFYMDLKAVRSDDTAIYFCARQRSDFWDFDVWGSGTQVTVSSASTKG
VL: DIQMTQSPSSLSARVGDTVTITCQANGYLNWYQQRRGKAPKLLIYDGSKLERGVPARFSGRRWGQEYNLTINNLQPEDVATYFCQVYEFIVPGTRLDLKRTVAA
notes: also called 3BNC60HC; 3BNC60KC
B7: 3BNC117 (antibody, V domains shown)
VH: B6 VH with H3Q, S5L, K28N, S30R, H32Y, Q73H, Y81F, V90L, I97V, F107Y
VL: DIQMTQSPSSLSASVGDTVTITCQANGYLNWYQQRRGKAPKLLIYDGSKLERGVPSRFSGRRWGQEYNLTINNLQPEDIATYFCQVYEFVVPGTRLDLKRTVAAPSVFIFPPSD
notes: also called 3BNC117HC; 3bnc117kc
B8: 3BNC55 (antibody, V domains shown)
VH: QVQLVQSGTAVKRPGASVRVSCQASGYTFTDYFIYWWRQAPGQGLEWLGWINPLTSQPSYPSRFQGRLTLTRDTFDEMLYMDLRGLRSDDTGIYFCARRHSDYCDFDIWGSGTQIIVSS
VL: DIQMTQSPSSLSASVGDKVTITCQTSAGYLNWYQQRRGRAPKLLMYDGSRLVTGVPSRFSGRRWGTQYNLTIGSLQPEDIATYYCQVYEFFGPGTRLDLKS
notes: also called 3BNC55HC; 3BNC55KC
B9: 3BNC66 (antibody, V domains shown)
VH: QVQLVQSGAALKKPGASLRISCQTYGYKFTDHLIYWWRQAPGQGLEWIGWIKPETGQPSYSYRFQGRVSLTRDTFEEIAFMDLRGLRSDDTAIYFCARRHTDYCVFDVWGSGSQIIVSS
VL: B8 VL with K18T, S26N, A27K, R50K, F59L, S101R
notes: also called 3BNC66HC; 3bnc66kc
B10: 3BNC156 (antibody, V domains shown)
VH: B9 VH with A79V, T101S, V105D, S111G, I115V
VL: B8 VL with K18T, S26N, A27K, R36K, R50K, F59L, S101R
notes: also called 3BNC156HC; 3bnc156kc
B11: 12A12 (antibody, V domains shown)
VH: SQQLVQSGTQVKKPGASVRISCQASGYSFTDYVLHWWRQAPGQGLEWMGWIKPVYGARNYARRFQGRINFDRDIYREIAFMDLSGLRSDDTALYFCARDGSGDDTSWHLDPWGQGTLVIVSA
VL: DIQMTQSPSSLSASVGDRVTITCQAGQGIGSSLQWYQQKPGKAPKLLVHGASNLHRGVPSRFSGSGFHTTFSLTISGLQRDDFATYFCAVLEFFGPGTKVEIKR
notes: also called 12A12HC; 12a12kc
B12: 8ANC195 (antibody, V domains shown)
VH: QIHLVQSGTEVKKPGSSVTVSCKAYGVNTFGLYAVNWVRQAPGQSLEYIGQIWRWKSSASHHFRGRVLISAVDLTGSSPPISSLEIKNLTSDDTAVYFCTTTSTYDKWSGLHHDGVMAFSSWGQGTLISVSA
VL: DIQMTQSPSTLAASIGGTVRVSCRASQSITGNWVAWYQQRPGKAPRLLIYRGAALLGGVPSRFSGSAAGTDFTLTIGNLQAEDFGTFYCQQYDTYPGTFGQGTKVEVKR
notes: also called 8ANC195HC; 8ANC195KC
B13: 1B2530 (antibody, V domains shown)
VH: QVRLEQSGAAMRKPGASVTLSCQASGYNFVKYIIHWVRQKPGLGFEWVGMIDPYRGRPWSAHKFQGRLSLSRDTSMEILYMTLTSLKSDDTATYFCARAEAASDSHSRPIMFDHWGQGSRVTVSS
VL: QSALTQPPSASGAPGQRVTISCSGGPSNVGGNYVYWYRQFPGTAPTLLILRDDQRPSGVPDRFSASKSGNSASLAISGLRPDDEGFYFCATYDSDGSIRLFGGGTALTVLS
notes: also called LSSB2530HC; LSSB2530LC

Residue numbers refer to the chain shown, from its start.

This assay addresses 2CC-core. As to the kind of experiment: SPR, antigen on chip, IgG injected. A general note: In SPR one partner is held on a chip, and binding of the other changes the refractive index at the surface.
As to B1, binding was put at a Kd of 1.81 nM, the koff turned out to be 0.00033 s⁻¹ and the kon is 182000 M⁻¹ s⁻¹.

In turn, B2 returned a Kd of 4.4 nM, an off-rate (koff) of 0.000494 s⁻¹ and a kon of 112000 M⁻¹ s⁻¹.

B3: the dissociation constant (Kd) came out at 4.61 nM, the koff came to 0.000236 s⁻¹ and the kon stood at 51100 M⁻¹ s⁻¹.

Turning to B4, the equilibrium dissociation constant (Kd) is 66.1 nM, the koff turned out to be 0.00323 s⁻¹ and the association rate constant (kon) is 48800 M⁻¹ s⁻¹.

For B5, binding was characterised by a dissociation constant (Kd) of 46.1 nM, the off-rate (koff) was 0.000957 s⁻¹ and the association rate constant (kon) is 20800 M⁻¹ s⁻¹.

B6 displayed a dissociation constant Kd of 54.5 nM, a koff of 0.00164 s⁻¹ and an on-rate (kon) of 30200 M⁻¹ s⁻¹.

B7 displayed a Kd of 36.8 nM. This lies in the double-digit nanomolar range.

For the molecule B8, binding was characterised by a dissociation constant (Kd) of 25.7 nM.

In the case of B9, the Kd was 33.6 nM, the off-rate (koff) was 0.00133 s⁻¹ and the kon amounted to 39600 M⁻¹ s⁻¹.

For the molecule B10, the dissociation constant (Kd) stood at 81.2 nM, the koff is 0.00153 s⁻¹ and the kon came to 18800 M⁻¹ s⁻¹.

Regarding B11, the Kd was 0.0269 nM, the off-rate (koff) turned out to be 1.7e-06 s⁻¹ and the kon was determined as 63300 M⁻¹ s⁻¹.

Turning to B12, the Kd stood at 54.7 nM, the koff came to 0.00132 s⁻¹ and the on-rate (kon) was 24100 M⁻¹ s⁻¹.

Consider B13, for which the Kd came to 5.9 nM, the off-rate (koff) turned out to be 0.000402 s⁻¹ and the on-rate constant (kon) was found to be 68300 M⁻¹ s⁻¹.

In general, Kd refers to the concentration at which binding is half-saturated. In general, koff refers to the rate constant with which the complex falls apart. A higher koff goes with a short-lived complex. As a reminder, the kon is a measure of how fast the partners come together. Read a low kon as slow association.
